Test results: US20260209362A1 (VIB VZW, published 2026)

T1: human IL-12Rβ2 expressed on cells (human, UniProt Q99665 24-862)
T1 construct: the cell lines are described by plasmid or cDNA number only; also called hIL-12RB2; HEK293T transiently transfected with human IL-12Rβ2
T1 sequence: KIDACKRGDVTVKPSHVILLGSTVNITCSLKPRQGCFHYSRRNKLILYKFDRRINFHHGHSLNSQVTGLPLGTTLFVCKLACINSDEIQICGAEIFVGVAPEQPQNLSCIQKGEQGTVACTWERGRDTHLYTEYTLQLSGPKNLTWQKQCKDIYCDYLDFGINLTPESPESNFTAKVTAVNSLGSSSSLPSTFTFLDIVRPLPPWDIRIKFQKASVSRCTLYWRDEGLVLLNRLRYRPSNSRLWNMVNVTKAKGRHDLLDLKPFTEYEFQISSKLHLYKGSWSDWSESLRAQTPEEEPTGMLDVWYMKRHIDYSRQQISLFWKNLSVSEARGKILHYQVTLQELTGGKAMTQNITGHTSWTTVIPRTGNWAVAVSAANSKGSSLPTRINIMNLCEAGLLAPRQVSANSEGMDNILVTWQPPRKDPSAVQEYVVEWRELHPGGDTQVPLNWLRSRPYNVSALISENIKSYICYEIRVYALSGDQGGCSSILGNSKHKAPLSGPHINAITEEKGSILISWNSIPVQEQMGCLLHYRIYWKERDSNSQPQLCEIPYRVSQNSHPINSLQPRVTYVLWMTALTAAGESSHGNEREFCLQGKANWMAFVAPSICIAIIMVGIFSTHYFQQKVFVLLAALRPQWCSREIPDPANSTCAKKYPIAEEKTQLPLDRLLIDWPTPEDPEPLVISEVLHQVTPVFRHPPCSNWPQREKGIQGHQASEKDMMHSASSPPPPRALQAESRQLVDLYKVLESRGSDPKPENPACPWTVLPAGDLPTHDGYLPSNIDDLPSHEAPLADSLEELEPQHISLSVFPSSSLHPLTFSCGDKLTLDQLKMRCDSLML

T2: biotinylated human recombinant IL-12Rβ2 (produced in-house) (human, UniProt Q99665 24-622, random biotinylated)
T2 construct: Soluble recombinant protein used for panning, ELISA and BLI; also called hIL-12RB2; hIL12RB2
T2 sequence: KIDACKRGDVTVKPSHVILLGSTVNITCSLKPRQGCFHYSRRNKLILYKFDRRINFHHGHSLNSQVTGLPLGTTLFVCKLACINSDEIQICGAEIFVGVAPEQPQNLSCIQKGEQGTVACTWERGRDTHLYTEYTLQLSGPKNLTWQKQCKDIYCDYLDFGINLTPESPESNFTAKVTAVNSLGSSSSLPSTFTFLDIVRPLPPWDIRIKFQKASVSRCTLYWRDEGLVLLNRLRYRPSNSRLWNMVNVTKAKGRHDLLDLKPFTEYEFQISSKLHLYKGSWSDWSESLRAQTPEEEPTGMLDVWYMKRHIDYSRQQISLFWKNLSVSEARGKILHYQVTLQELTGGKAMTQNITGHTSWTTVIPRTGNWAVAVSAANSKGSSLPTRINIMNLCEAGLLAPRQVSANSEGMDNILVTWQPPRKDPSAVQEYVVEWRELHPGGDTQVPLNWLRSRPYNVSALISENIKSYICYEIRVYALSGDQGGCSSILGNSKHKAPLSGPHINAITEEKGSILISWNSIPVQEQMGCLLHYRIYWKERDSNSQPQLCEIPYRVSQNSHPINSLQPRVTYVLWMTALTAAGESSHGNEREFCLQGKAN

T3: biotinylated mouse recombinant IL-12Rβ2 (produced in-house) (mouse, UniProt P97378 24-637, random biotinylated)
T3 construct: Soluble recombinant protein used for panning, ELISA and BLI; also called mIL-12RB2; mIL12RB2
T3 sequence: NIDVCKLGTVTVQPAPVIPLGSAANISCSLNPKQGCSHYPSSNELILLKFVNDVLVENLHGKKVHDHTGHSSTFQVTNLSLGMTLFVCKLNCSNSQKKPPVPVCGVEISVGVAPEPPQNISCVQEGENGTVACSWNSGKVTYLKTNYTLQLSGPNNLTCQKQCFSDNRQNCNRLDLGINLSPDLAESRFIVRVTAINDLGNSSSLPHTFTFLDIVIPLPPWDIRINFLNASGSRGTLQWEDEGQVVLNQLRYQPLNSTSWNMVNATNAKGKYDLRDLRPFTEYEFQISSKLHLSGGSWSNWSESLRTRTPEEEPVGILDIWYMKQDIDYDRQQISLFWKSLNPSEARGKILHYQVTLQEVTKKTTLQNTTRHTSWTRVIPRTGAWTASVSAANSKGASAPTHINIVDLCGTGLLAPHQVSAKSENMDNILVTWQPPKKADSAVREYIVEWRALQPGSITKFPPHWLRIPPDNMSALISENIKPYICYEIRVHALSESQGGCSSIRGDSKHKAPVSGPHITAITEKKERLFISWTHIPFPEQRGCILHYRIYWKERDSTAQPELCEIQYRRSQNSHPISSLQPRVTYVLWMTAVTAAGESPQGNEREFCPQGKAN

T4: biotinylated recombinant mouse IL-12Rβ2 (mouse, UniProt P97378 24-637, random biotinylated)
T4 construct: Recombinant protein produced in-house, biotinylated; also called mIL-12RB2; mouse IL-12RB2
T4 sequence: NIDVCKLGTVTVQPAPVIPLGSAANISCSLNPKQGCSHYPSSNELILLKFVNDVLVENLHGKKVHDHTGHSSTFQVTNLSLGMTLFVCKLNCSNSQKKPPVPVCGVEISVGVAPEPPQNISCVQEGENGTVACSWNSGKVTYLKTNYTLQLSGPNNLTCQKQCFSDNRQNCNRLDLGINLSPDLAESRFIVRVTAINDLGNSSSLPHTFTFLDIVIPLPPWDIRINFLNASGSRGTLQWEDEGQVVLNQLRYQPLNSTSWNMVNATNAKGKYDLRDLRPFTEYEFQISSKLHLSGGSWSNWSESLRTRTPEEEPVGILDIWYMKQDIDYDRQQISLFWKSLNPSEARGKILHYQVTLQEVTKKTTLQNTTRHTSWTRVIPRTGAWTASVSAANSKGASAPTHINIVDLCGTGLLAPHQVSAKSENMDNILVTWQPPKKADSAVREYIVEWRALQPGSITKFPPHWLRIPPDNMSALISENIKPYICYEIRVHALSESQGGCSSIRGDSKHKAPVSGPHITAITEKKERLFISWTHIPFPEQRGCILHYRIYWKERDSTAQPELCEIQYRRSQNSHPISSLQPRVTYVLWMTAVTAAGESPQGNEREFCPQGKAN

T5: biotinylated recombinant human IL-12Rβ2 (human, UniProt Q99665 24-622, random biotinylated)
T5 construct: Recombinant protein produced in-house, biotinylated; also called hIL-12RB2; human IL-12RB2
T5 sequence: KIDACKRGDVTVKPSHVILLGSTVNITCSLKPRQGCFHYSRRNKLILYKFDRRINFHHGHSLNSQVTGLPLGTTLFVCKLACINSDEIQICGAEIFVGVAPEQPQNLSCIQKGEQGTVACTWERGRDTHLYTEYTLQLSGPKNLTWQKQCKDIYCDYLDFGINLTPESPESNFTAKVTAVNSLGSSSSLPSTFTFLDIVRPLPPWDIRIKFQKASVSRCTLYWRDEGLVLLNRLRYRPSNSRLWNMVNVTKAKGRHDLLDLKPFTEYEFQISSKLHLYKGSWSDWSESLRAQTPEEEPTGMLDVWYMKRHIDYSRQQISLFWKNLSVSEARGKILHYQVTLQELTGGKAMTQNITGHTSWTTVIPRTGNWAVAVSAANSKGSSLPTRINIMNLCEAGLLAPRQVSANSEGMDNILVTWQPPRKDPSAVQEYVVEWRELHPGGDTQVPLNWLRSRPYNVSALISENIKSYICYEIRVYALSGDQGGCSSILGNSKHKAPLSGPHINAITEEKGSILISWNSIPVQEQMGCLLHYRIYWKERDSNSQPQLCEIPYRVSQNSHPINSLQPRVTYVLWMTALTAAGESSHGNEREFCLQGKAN


Assays:
[1] = target: T1, human IL-12Rβ2 expressed on cells; test: flow cytometry, periplasmic extract VHH-HA on HEK293T cells transiently expressing human IL-12Rβ2
[2] = target: T2, biotinylated human recombinant IL-12Rβ2 …; test: BLI (Octet Red), periplasmic extract on biotinylated human IL-12Rβ2 on streptavidin tips, 1:1 model
[3] = target: T2, biotinylated human recombinant IL-12Rβ2 …; test: ELISA, periplasmic extract on biotinylated human IL-12Rβ2; signal over streptavidin control well
[4] = target: T3, biotinylated mouse recombinant IL-12Rβ2 …; test: ELISA, periplasmic extract on biotinylated mouse IL-12Rβ2; signal over streptavidin control well
[5] = target: T3, biotinylated mouse recombinant IL-12Rβ2 …; test: ELISA, periplasmic extract on biotinylated mouse IL-12Rβ2
[6] = target: T2, biotinylated human recombinant IL-12Rβ2 …; test: BLI (Octet Red), periplasmic extract on biotinylated human IL-12Rβ2 on streptavidin tips
[7] = target: T4, biotinylated recombinant mouse IL-12Rβ2; test: ELISA, periplasmic extract on biotinylated mIL-12Rβ2, signal over control wells
[8] = target: T5, biotinylated recombinant human IL-12Rβ2; test: BLI (Octet), periplasmic extract on biotinylated hIL-12Rβ2 on streptavidin tips
[9] = target: T5, biotinylated recombinant human IL-12Rβ2; test: ELISA, periplasmic extract on biotinylated hIL-12Rβ2, signal over control wells
[10] = target: T5, biotinylated recombinant human IL-12Rβ2; test: BLI (Octet), periplasmic extract on biotinylated hIL-12Rβ2 on streptavidin tips, 1:1 model

Binder | % cells bound [1] [%] | dMFI [1] | koff [2] [s⁻¹] | hIL12RB2/control (ELISA) [3] [ratio] | mIL12RB2/control (ELISA) [4] [ratio] | binding result [5] | Response [6] | ELISA binding mIL-12RB2/control [7] [ratio] | Response [8] | ELISA binding hIL-12RB2/control [9] [ratio] | koff [10] [s⁻¹]
anti-IL-12Rβ2 VHH clone 3CAHS124 (clone ID 20400) (VHH, Tested as periplasmic extract; not shown: C-terminal HA tag) VHH: QVQLQESGGGLVQPGGSLRLSCAASGRTINAYIMGWFRQAPGKEREFVAAVSGSGGSTYYADSVKGRFTISRDNAKNTVNLQMDNLRSEDTDVYYCAATYESVYLQNPGQYDYWGQGTQVTVSS | 46.3 | 1100 | 0.00324 | 5.67 | 1 | no binding | 0.293 |  |  |  | 
anti-IL-12Rβ2 VHH clone 20391 (VHH, not shown: small tags and cut ends, tested as periplasmic extract; also called 3CRH93) VHH: QVQLQESGGGLVQAGGSLRLSCAASGRTVDSYAMGWFRQTPGKEREFVAASWGGGSTYYADSVKGRFTISRDNVKNTMYLQMDSLKPEDTAVYYCAAGPTYYSGPINDNWEGRYDSWGQGTQVTVSS |  |  |  |  |  |  |  | 1.38 | 0.426 | 3.45 | 0.00486
anti-IL-12Rβ2 VHH clone 20404 (VHH, not shown: small tags and cut ends, tested as periplasmic extract; also called 3CAHS153) VHH: QVQLQESGGGLVQAGGSLRLSCAASGRTFSSYAMGWFRQVPGKERDFVAAVSWGGLSTYYADSVEGRFTISRDNAKNTVFLQMNSLKPEDTAVYYCAADRAYEGLGYGEYEYWGQGTQVTVSS |  |  |  |  |  |  |  | 1.08 | 0.163 | 3.32 | 0.00302
anti-IL-12Rβ2 VHH clone 20358 (VHH, not shown: small tags and cut ends, tested as periplasmic extract; also called 3CAH34) VHH: QVQLQESGGGSVQPGGSLRLSCGASGFTFSSFGMHWFRQAPGKGQEWAATISSSGGTTYYSDSVKGRFTISRDNAKNTLYLQMNSLKPEDTALYYCARDVTGAVRGQGTQVTVSS |  |  |  |  |  |  |  | 1.12 | 0.69 | 5.01 | 0.00636
anti-IL-12Rβ2 VHH clone 20408 (VHH, not shown: small tags and cut ends, tested as periplasmic extract; also called 3CAHS172) VHH: QVQLQESGGGSVQAGGSLRLSCGASGFTFSSFGMHWFRQAPGKGQEWVATISSSGGTTYYSDSVKGRFTISRDNAKNTLYLQMNSLKPEDTALYYCARDVTGAVRGQGTQVTVSS |  |  |  |  |  |  |  | 1.11 | 0.388 | 3.49 | 0.00383
anti-IL-12Rβ2 VHH clone 3CRHS51 (clone ID 20421) (VHH, Tested as periplasmic extract; also called 3CRHSS1; not shown: C-terminal HA tag) VHH: QVQLQESGGGLVQPGGSLRLSCAASGFTFSTYAMSWVRQAPGKGLEWVSAVNSGGLSTDYADSVEGRFTISRDDAKNMLFLQMNRLKPEDTARYYCAKYEDCSDYVCDRAGYWGQGTQVTVSS | 46 | 1140 | 0.0043 |  |  | no binding | 0.327 |  |  |  | 
